In article PMC3742808 (Nature structural & molecular biology, 2013):
Changes are numbered by the printed parent chain.

What was measured:
[1] = molecular target: recombinant human APC/C^CDH1 (Anaphase Promoting Complex/Cyclosome with CDH1) (human, UniProt Q9H1A4;Q9UJX6;P30260;Q9UJX5;Q9UJX4;Q13042;Q9UJX3;Q9UJX2;Q9UM13;Q9NYG5;Q9BS18;P60 …); assay: enzyme inhibition
[2] = molecular target: recombinant human APC/C (without CDH1) (human, UniProt Q9H1A4;Q9UJX6;P30260;Q9UJX5;Q9UJX4;Q13042;Q9UJX3;Q9UJX2;Q9UM13;Q9NYG5;Q9BS18;P60 …); assay: enzyme inhibition

B1: EMI1^DLZT (D-box, Linker, ZBR, Tail; C-terminal APC/C inhibitory domain, residues 305-447) (domain or fragment)
chain: NNNKFSPHASTREYVMFRTPLASVQKSAAQTSLKKDAQTKLSNQGDQKGSTYSRHNEFSEVAKTLKKNESLKACIRCNSPAKYDCYLQRATCKREGCGFDYCTKCLCNYHTTKDCSDGKLLKASCKIGPLPGTKKSKKNLRRL
Binder B1 has a Ki [1] of no more than 2.5 nM.

B2: EMI1^D(Mut)LZT (EMI1^DLZT with alanines in place of Arg322 and Leu325 of the D-box RxxL motif) (domain or fragment)
chain: B1 chain with R18A, L21A
In the case of B2, the Ki [2] is reported as 220 ± 37 nM.

B3: EMI1^ZT (ZBR and Tail; residues 363-447) (domain or fragment)
chain: SEVAKTLKKNESLKACIRCNSPAKYDCYLQRATCKREGCGFDYCTKCLCNYHTTKDCSDGKLLKASCKIGPLPGTKKSKKNLRRL
For B3, the Ki [2] was 2000 ± 400 nM.
